Drawing on paper PMC7311396 (2020), this text covers IC50 and Kd for 3 molecules.

For orientation: IC50 means the concentration that inhibits the measured activity by half. Broadly, the Kd is the constant that tells how readily two partners part at equilibrium. A lower Kd goes with a tighter complex.

B1: 14-3-3.12, unlabeled (peptide)
chain: KVF[thiazolylalanine][pS][Phe(4-NO2)]S[βAla][Phe(4-NO2)]K-NH2
modifications: not fully specified (residue 7); also: position 7 is a β-residue, identity not given here
B2: 14-3-3γ (natural protein)
chain: MVDREQLVQKARLAEQAERYDDMAAAMKNVTELNEPLSNEERNLLSVAYKNVVGARRSSWRVISSIEQKTSADGNEKKIEMVRAYREKIEKELEAVCQDVLSLLDNYLIKNCSETQYESKVFYLKMKGDYYRYLAEVATGEKRATVVESSEKAYSEAHEISKEHMQPTHPIRLGLALNYSVFYYEIQNAPEQACHLAKTAFDDAIAELDTLNEDSYKDSTLIMQLLRDNLTLWTSDQQDDDGGEGNN
B3: FITC-labeled 14-3-3.12 (peptide)
chain: KVF[thiazolylalanine][pS][Phe(4-NO2)]S[βAla][Phe(4-NO2)]K-NH2
modifications: not fully specified (residue 7); also: FITC label, position not given here, position 7 is a β-residue, identity not given here

Experiment [1] addresses B2. In words: FP; competition with FITC-BiExoS.
Experiment [2] deals with FITC-labeled 14-3-3.1 (FITC label (position not given); phosphoserine fixed in the middle, flanked by four varied positions on either side; non-canonical amino acids; C-terminal motif Nph-β-Ser-(β-Ala/β-Ser)-Nph; …). In words: FP.
In experiment [3] the target is B2. Kind of experiment: FP.

Non-standard residues stand in square brackets, D forms with d. No end group written: not given here. Phe(4-NO2) = N[C@@H](Cc1ccc([N+](=O)[O-])cc1)C(=O)O; pS = N[C@@H](COP(=O)(O)O)C(=O)O; βAla = NCCC(=O)O

In turn, B1 came in with an IC50 in experiment [1] of 198 nM.

As to B2, binding in experiment [2] was characterised by a dissociation constant (Kd) of 5.7 nM.

B3 returned a Kd in experiment [3] of 19 nM.
